Measurements published in article PMC6090299, “Quantitative Analysis of Interaction Between CADM1 and Its Binding Cell-Surface Proteins Using Surface Plasmon Resonance Imaging” (Frontiers in Cell and Developmental Biology, 2018).

Biological target: T1, CADM1-Fc (human (by the printed RefSeq entry), UniProt Q9BY67-1 45-374)
T1 construct: signal peptide in the construct; CADM1 extracellular domain, NP_055148, 1-374 a.a; Human IgG2-Fc fragment from pFUSE-hIgG2-Fc1; Glycosylated; also called cell adhesion molecule 1 extracellular domain fused with Fc; source: FreeStyle 293-F cells, transiently transfected, purified from the supernatant (Protein G Sepharose); not shown: Fc (human IgG2), C-terminal, kept
T1 sequence (looked up): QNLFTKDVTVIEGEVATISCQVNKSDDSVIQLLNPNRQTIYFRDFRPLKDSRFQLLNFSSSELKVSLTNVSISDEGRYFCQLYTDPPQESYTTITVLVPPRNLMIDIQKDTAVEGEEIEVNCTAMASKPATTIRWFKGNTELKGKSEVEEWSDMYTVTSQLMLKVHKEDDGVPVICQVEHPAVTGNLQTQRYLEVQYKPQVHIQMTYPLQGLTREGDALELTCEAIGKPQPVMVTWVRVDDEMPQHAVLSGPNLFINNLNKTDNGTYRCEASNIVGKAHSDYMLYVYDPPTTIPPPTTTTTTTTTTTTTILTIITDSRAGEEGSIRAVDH
Assay: SPR; SPR imaging (OpenPlex); the 10 IgSF-Fc proteins (7-24 μM) spotted in hexaplicate and immobilised by amine coupling; 2.4 μM CADM1-Fc injected for 4 min; 25°C; PBS with 0.2% BSA and 0.02% Tween20, 50 μL/min; signal of normal human IgG subtracted
Settings: both partners purified

B1: CRTAM-Fc (Fc fusion, human (by the printed RefSeq entry), UniProt O95727-1 18-287, looked up)
chain: SLTNHTETITVEEGQTLTLKCVTSLRKNSSLQWLTPSGFTIFLNEYPALKNSKYQLLHHSANQLSITVPNVTLQDEGVYKCLHYSDSVSTKEVKVIVLATPFKPILEASVIRKQNGEEHVVLMCSTMRSKPPPQITWLLGNSMEVSGGTLHEFETDGKKCNTTSTLIIHTYGKNSTVDCIIRHRGLQGRKLVAPFRFEDLVTDEETASDALERNSLSSQDPQQPTSTVSVTEDSSTSEIDKEEKEQTTQDPDLTTEANPQYLGLARKKSG
notes: signal peptide in the construct; CRTAM extracellular domain, NP_062550, 1-287 a.a; Human IgG2-Fc fragment from pFUSE-hIgG2-Fc1; also called class-I MHC-restricted T-cell-associated molecule; source: FreeStyle 293-F cells, transiently transfected, purified from the supernatant (Protein G Sepharose); not shown: Fc (human IgG2), C-terminal, kept
For B1, which Kd is on record?
The Kd was 3.3 nM.

What about the koff of the same binder?
Its koff is 0.00011 s⁻¹.

And the kon?
The kon was 31000 M⁻¹ s⁻¹.
